{"source": "patent US20210147572A1", "about": "“ANTIBODIES AND METHODS OF USE THEREOF” (AbeXXa Biologics, Inc., priority 2017, published 2021)", "key": {"[1]": {"target": "T1, HLA-E molecules expressed in PDX lung tumor tissue (Homo sapiens, UniProt P13747)", "T1 construct": "tissue Crown Biosciences PDX model LU5139; host or cells: patient-derived xenograft lung tumour tissue", "assay": "LC/MS/MS validation of peptides eluted from HLA-E of PDX lung tumor tissue", "conditions": "PDX model LU5139, HLA-E affinity column 4D12", "method": "FIG. 6 exemplifies a validation strategy used for cancer specific HLA-E-peptide targets. 1) Snap-frozen tumor tissue isolated from patient-derived xenograft (PDX) models, patient biopsies or freshly isolated hematological cancer cells are stored frozen in liquid nitrogen. 2) Sample of material is isolated and resuspended in 5 to 10 ml of lysis buffer and homogenized for 10 seconds on ice. After lhr incubation on ice, the sample is centrifuged for 20 min at 40,000 g. 3) An affinity column is prepared using antibody 4D12 or another antibody to HLA-E. The purified anti-HLA-E antibodies are coupled to a CN-Br-activated sepharose beads. The clarified supernatant is then applied to the affinity column. The column is washed with PBS, followed by a second wash with water and the sample eluted with 0.1M glycine pH 3.0. 4) Collected sample is immediately neutralized with addition of NH4HCO3. […]\nPDX lung tumor tissue was purchased from Crown Biosciences and used for extraction of HLA-E-peptide complexes. […] An aliquot of sample supernatant was removed and protein concentration was determined by BCA assay. […]\nPeptide mixture samples underwent solid-phase extraction cleanup with an Oasis HLB elution plate (Waters) and the resulting samples were analyzed by LC/MS/MS, using an Orbitrap Fusion Lumos mass spectrometer (Thermo Electron) coupled to an UltiMate™ 3000 RSLC-Nano liquid chromatography system (Dionex). […]"}, "HLA-E*0103": {"target": "HLA-E*0103 (Homo sapiens, UniProt P13747)", "assay": "HLA-E*0103 peptide binding and refolding into monomer", "assay_type": "biochemical"}, "[2]": {"target": "T2, HLA-E*0103 extracellular domain with beta-2-microglobulin (recombinant, before peptide loading) (human)", "assay": "peptide binding and refold into monomer complex"}, "[3]": {"target": "T2, HLA-E*0103 extracellular domain with …", "assay": "in vitro refold, Superdex 75 size exclusion"}}, "data": [{"molecule": "GLADKVYFL", "values": [{"measurement": "Peptide detected in lung PDX tissue by LC/MS/MS", "setting": "[1]", "result": "isolated from HLA-E molecules expressed in PDX lung tumor tissue"}]}, {"molecule": "YLLPAIVHI [RNA Helicase p68 peptide]", "values": [{"measurement": "HLA-E*0103 peptide binding, refold into stable monomer complexes", "setting": "HLA-E*0103", "result": "successfully refold HLA-E*0103/peptide into stable monomer complexes"}]}, {"molecule": "YLLPAIVHI", "note": "[peptide YLLPAIVHI (RNA Helicase p68)]", "values": [{"measurement": "binding result", "setting": "[2]", "result": "binds"}]}, {"molecule": "GLADKVYFL", "note": "[peptide GLADKVYFL (CAD protein)]", "values": [{"measurement": "binding result", "setting": "[3]", "result": "binds"}]}]}
